# Paper doi:10.1101/2025.08.04.668577
# B1: HEPC108 IgG (antibody, V domains shown)
# VH: QVQLVQSGAEVKKPGSSVKVSCKASGDTFSSSAISWVRQAPGQGLEWMGGSIPIFGATKYAQKFQGRVTITTDKSTSTAYMELSSLRFEDTAVYYCARASIVNISGFVRFRFDSWGQGTLVTVSS
# VL: DIQMTQSPSSLSASVGDRVTITCQASQDISNYLNWYQQKPGKAPKLLIYDVSNLEIGVPSRFSGSGSGTEFTLTINSLQPEDLATYFCQHYDDVPPVYTFGQGTSLEIK
# Experiments:
# [1] = biological target: E2 ectodomain of HCV strain 1a116 (hepatitis C virus (genotype 1a, strain 1a116))
# [2] = biological target: E2 ectodomain of HCV strain 1a142 (hepatitis C virus (genotype 1a, strain 1a142)); assay: ELISA
binder,measurement,setting,value
B1,"HCVpp neutralization IC50 (1a116 HCVpp, Huh7 cells)",[1],0.12 µg/mL
same,fold weaker binding than HEPC74 and AR3C (ELISA),[2],1.5 fold
